This note sets out measurements from US20250262210A1 (TRUSTEES OF COLUMBIA UNIVERSITY IN THE CITY OF NEW YORK, published 2025).

One experiment has as its target T1, LONP2 (human, UniProt Q86WA8 2-852, limits assumed).
T1 sequence (looked up): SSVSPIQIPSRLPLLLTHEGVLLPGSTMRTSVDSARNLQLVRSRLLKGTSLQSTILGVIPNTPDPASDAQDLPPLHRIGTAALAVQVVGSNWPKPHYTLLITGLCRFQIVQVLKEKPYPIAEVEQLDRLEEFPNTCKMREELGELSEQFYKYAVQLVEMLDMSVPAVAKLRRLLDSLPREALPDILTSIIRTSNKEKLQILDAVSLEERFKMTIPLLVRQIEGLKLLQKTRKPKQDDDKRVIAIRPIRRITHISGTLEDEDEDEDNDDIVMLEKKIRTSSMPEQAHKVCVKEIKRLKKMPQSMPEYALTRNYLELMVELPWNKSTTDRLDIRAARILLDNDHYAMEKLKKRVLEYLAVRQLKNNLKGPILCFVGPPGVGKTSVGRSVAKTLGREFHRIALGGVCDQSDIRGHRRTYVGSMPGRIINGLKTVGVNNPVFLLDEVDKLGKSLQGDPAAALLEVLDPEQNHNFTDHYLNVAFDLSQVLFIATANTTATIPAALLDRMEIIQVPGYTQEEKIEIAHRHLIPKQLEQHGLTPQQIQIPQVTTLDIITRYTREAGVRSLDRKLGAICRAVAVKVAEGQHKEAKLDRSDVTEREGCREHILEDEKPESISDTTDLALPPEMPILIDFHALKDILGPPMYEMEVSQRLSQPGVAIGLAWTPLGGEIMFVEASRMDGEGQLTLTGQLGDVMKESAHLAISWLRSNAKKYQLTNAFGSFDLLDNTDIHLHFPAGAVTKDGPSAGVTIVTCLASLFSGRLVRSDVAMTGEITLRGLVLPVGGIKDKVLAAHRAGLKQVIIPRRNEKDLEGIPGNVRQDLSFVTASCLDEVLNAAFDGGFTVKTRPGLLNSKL
The experiment is described as follows: IP/MS, LZTR1 R810W-FLAG, U87. The method in brief: (§1)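 Extracted peptides in 3% acetonitrile/0.1% formic acid ran on a 50 cm C18 column into an Orbitrap Fusion, with MaxQuant identification and spectral counting.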

The target of another experiment is T2, AP4E1 (human, UniProt Q9UPM8 1-1137, limits assumed).
T2 sequence (looked up): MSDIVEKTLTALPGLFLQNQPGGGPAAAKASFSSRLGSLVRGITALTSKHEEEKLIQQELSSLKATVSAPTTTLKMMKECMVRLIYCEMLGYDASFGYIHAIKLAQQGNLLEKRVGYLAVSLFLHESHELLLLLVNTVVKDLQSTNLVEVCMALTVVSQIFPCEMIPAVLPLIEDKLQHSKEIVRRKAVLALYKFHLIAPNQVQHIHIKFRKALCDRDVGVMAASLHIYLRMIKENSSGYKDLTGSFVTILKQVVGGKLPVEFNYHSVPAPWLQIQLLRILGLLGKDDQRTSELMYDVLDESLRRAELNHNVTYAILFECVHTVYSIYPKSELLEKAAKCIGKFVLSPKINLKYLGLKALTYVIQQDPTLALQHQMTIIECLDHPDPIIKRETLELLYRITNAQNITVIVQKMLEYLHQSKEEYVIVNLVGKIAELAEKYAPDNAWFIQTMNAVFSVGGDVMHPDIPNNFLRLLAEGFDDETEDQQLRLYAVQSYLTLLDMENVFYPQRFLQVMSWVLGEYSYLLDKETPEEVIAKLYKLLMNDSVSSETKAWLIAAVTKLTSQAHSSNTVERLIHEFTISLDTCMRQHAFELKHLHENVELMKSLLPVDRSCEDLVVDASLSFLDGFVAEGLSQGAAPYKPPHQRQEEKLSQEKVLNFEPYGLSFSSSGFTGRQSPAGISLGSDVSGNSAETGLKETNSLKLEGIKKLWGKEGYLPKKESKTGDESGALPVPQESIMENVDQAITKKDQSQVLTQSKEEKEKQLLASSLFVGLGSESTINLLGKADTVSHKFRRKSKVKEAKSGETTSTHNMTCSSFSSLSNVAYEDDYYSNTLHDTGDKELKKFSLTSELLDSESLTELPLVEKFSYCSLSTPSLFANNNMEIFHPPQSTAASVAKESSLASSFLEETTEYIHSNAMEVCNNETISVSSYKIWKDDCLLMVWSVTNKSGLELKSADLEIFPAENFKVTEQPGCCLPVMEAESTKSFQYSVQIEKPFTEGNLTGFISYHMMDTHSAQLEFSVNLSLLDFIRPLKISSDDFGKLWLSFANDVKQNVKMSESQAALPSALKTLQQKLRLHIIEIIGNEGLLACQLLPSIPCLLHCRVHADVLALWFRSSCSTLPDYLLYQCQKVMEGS
Kind of experiment: IP/MS, LZTR1 R810W-FLAG, U87. Put shortly: as §1

B1: LZTR1 R810W-FLAG (other, human, UniProt Q8N653 1-840, looked up)
chain: MAGPGSTGGQIGAAALAGGARSKVAPSVDFDHSCSDSVEYLTLNFGPFETVHRWRRLPPCDEFVGARRSKHTVVAYKDAIYVFGGDNGKTMLNDLLRFDVKDCSWCRAFTTGTPPAPRYHHSAVVYGSSMFVFGGYTGDIYSNSNLKNKNDLFEYKFATGQWTEWKIEGRLPVARSAHGATVYSDKLWIFAGYDGNARLNDMWTIGLQDRELTCWEEVAQSGEIPPSCCNFPVAVCRDKMFVFSGQSGAKITNNLFQFEFKDKTWTRIPTEHLLRGSPPPPQRRYGHTMVAFDRHLYVFGGAADNTLPNELHCYDVDFQTWEVVQPSSDSEVGGAEVPERACASEEVPTLTYEERVGFKKSRDVFGLDFGTTSAKQPTQPASELPSGRLFHAAAVISDAMYIFGGTVDNNIRSGEMYRFQFSCYPKCTLHEDYGRLWESRQFCDVEFVLGEKEECVQGHVAIVTARSRWLRRKITQARERLAQKLEQEAAPVPREAPGVAAGGARPPLLHVAIREAEARPFEVLMQFLYTDKIKYPRKGHVEDVLLIMDVYKLALSFQLCRLEQLCRQYIEASVDLQNVLVVCESAARLQLSQLKEHCLNFVVKESHFNQVIMMKEFERLSSPLIVEIVRRKQQPPPRTPLDQPVDIGTSLIQDMKAYLEGAGAEFCDITLLLDGHPRPAHKAILAARSSYFEAMFRSFMPEDGQVNISIGEMVPSRQAFESMLRYIYYGEVNMPPEDSLYLFAAPYYYGFYNNRLQAYCKQNLEMNVTVQNVLQILEAADKTQALDMKRHCLHIIVHQFTKVSKLPTLWSLSQQLLLDIIDSLASHISDKQCAELGADI
notes: Stably expressed in U87 cells by lentivirus; also called LZTR1-FLAG-R810W; LZTR1 RW; not shown: FLAG tag
As to B1, the binding result in the experiment with LONP2 and in the experiment with AP4E1 was “binds” in each case.
